The results in this text go back to patent publication EP4624486A1 (Guangdong Raynovent Biotech Co., Ltd., dated 2025).

Common to all, as to experiment: cell-based or functional assay
For assay [1], the target named is GLP-1 receptor (GLP-1R) (UniProt P43220).
Assay [2] concerns the target GIP receptor (GIPR) (UniProt P48546).
Assay [3] concerns the target GCG receptor (GCGR) (UniProt P47871).
Assay [4] deals with GLP-1 receptor (GLP-1R) (UniProt P43220 24-463, limits assumed).
Assay [5] has as its target GCG receptor (GCGR) (UniProt P47871 26-477, limits assumed).
The target in assay [6] is T1, GIP receptor (GIPR) (UniProt P48546 22-466, limits assumed).
T1 sequence (looked up): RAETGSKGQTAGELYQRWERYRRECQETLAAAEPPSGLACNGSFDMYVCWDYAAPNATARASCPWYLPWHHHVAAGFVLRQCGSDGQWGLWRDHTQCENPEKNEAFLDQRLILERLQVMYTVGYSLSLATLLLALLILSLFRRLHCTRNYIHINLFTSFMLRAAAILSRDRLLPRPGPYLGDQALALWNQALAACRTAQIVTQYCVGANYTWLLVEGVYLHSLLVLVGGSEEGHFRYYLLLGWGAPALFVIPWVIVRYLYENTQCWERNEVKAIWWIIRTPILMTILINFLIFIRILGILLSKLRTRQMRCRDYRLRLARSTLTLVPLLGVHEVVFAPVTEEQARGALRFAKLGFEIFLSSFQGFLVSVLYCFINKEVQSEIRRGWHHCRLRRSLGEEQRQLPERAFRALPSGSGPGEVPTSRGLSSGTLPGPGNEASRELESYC

Bridge positions count the residues as written; N and C are the ends. Square brackets hold non-standard residues; d marks the D form. Ends that are not written are not given here. αMeF = C[C@](N)(Cc1ccccc1)C(=O)O; αMeL = CC(C)C[C@](C)(N)C(=O)O; Aib = CC(C)(N)C(=O)O

GCG receptor (GCGR) (UniProt P47871 26-477, limits assumed), sequence (P47871 26-477 limits assumed): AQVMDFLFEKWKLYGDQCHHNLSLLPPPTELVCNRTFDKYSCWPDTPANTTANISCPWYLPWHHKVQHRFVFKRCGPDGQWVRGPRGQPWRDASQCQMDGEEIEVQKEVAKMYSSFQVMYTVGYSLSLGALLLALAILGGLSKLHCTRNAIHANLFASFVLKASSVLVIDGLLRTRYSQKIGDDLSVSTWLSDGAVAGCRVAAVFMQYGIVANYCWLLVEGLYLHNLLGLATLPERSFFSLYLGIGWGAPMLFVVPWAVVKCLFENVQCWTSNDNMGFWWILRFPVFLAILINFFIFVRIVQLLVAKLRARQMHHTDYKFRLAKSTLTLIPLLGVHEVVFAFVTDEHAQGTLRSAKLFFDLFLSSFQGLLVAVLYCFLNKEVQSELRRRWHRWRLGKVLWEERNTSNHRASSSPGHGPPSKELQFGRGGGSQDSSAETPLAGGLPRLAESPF
GLP-1 receptor (GLP-1R) (UniProt P43220), sequence (P43220 24-463 limits assumed): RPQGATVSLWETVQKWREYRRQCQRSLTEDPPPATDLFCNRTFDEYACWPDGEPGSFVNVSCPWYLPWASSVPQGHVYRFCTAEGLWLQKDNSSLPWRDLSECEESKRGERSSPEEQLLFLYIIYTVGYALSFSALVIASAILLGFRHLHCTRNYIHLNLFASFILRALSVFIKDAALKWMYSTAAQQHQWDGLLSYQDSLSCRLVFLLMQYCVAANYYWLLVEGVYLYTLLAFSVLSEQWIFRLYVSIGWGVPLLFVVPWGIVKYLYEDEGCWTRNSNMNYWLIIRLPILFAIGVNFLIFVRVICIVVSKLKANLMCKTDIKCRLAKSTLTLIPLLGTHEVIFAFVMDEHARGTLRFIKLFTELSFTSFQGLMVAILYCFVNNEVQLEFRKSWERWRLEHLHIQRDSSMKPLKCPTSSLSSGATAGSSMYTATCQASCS
GCG receptor (GCGR) (UniProt P47871), sequence (P47871 26-477 limits assumed): as the sequence (P47871 26-477 limits assumed) above

On to “Human GLP-1 (7-37) (from UniProt P01275 21-180) (ligand)”, for which the GLP-1 EC50 (nM); cAMP, agonistic activity in assay [1] worked out at 0.001 nM.
In assay [2], LY3437943 (peptide) had a GIP-1 EC50 (nM); cAMP, agonistic activity of 0.001 nM. Further, the GLP-1 EC50 (nM); cAMP, agonistic activity in assay [1] was 0.014 nM. For the same molecule, in assay [3], the GCG EC50 (nM); cAMP, agonistic activity was found to be 0.031 nM.

B1: Example 45 (peptide)
peptide: Y[Aib]QGTFTSDYSI[αMeL]KDKKAQ[Aib]AFIEYLLEGGPSSGAPPPS-NH2
modifications: bridge 14-17; not fully specified (bridges); also: stapled body (lipidated) structure only in drawing chem0251
Take B1: the “GLP-1 EC50 (nM); cAMP, agonistic activity” value (from here on “GLP-1 EC50 (nM); cAMP”) in assay [4] was determined as 0.005 nM. Moreover, the “GCG EC50 (nM); cAMP, agonistic activity” value in assay [5] was 0.029 nM. Further, the “GIP-1 EC50 (nM); cAMP, agonistic activity” value (from here on “GIP-1 EC50 (nM); cAMP”) in assay [6] came out at 0.0001 nM.

B2: Example 54 (peptide)
peptide: Y[Aib]QGTFTSDYSI[αMeL]KDKKAQ[Aib]AFIEYLLKGGPSSGAPPPS-NH2
modifications: bridge 14-17; not fully specified (bridges); also: stapled body (lipidated) structure only in drawing chem0263
For B2, in assay [4], the “GLP-1 EC50 (nM); cAMP” value worked out at 0.002 nM. Moreover, in assay [5], the “GCG EC50 (nM); cAMP, agonistic activity” value stood at 0.02 nM. The “GIP-1 EC50 (nM); cAMP” value in assay [6] was 0.0004 nM.

B3: Example 41 (peptide)
peptide: Y[Aib]QGTFTSDYSI[αMeL]KDKKAQ[Aib]AFIEYLLKGGPSSGAPPPS-NH2
modifications: linker 14-17 via Ida, Lys, Lys, γGlu, C20 diacid; also: further groups not given here
As to B3, in assay [4], the “GLP-1 EC50 (nM); cAMP” value came out at 0.003 nM. The “GCG EC50 (nM); cAMP, agonistic activity” value in assay [5] was found to be 0.015 nM. Besides, the “GIP-1 EC50 (nM); cAMP” value in assay [6] came out at 0.0003 nM.

B4: Example 1 (peptide)
peptide: Y[Aib]QGTFTSDYSI[αMeL]LDKKAQ[Aib]KFIEYLLEGGPSSGAPPPS-NH2
modifications: linker 17-21 via (2-2-oxoethyl)‑glycine, AEEA, AEEA, γGlu, C20 diacid
Regarding B4, the “GLP-1 EC50 (nM); cAMP” value in assay [4] turned out to be 0.009 nM. The “GCG EC50 (nM); cAMP, agonistic activity” value in assay [5] came to 0.024 nM. Also, the “GIP-1 EC50 (nM); cAMP” value in assay [6] came out at 0.001 nM.

B5: Example 23 (peptide)
peptide: Y[Aib]QGTFTSDYSI[αMeL]LDKKAQ[Aib]KFIEFLIEGGPSSGAPPPS-NH2
modifications: linker 17-21 via Ida, Lys, Lys, γGlu, C20 diacid
Turning to B5, in assay [4], the “GLP-1 EC50 (nM); cAMP” value was found to be 0.007 nM. Further, the “GCG EC50 (nM); cAMP, agonistic activity” value in assay [5] was determined as 0.096 nM. Besides, the “GIP-1 EC50 (nM); cAMP” value in assay [6] was found to be 0.0004 nM.

B6: Example 51 (peptide)
peptide: Y[Aib]QGT[αMeF]TSDYSI[αMeL]KDKKAQ[Aib]AFIEYLLKGGPSSGAPPPS-NH2
modifications: bridge 14-17; not fully specified (bridges); also: stapled body (lipidated) structure only in drawing chem0260
Take B6: the “GLP-1 EC50 (nM); cAMP” value in assay [4] is 0.001 nM. Moreover, the “GCG EC50 (nM); cAMP, agonistic activity” value in assay [5] was 0.025 nM. Further, in assay [6], the “GIP-1 EC50 (nM); cAMP” value is 0.0002 nM.

B7: Example 42 (peptide)
peptide: Y[Aib]QGTFTSDYSI[αMeL]KDKKAQ[Aib]AFIQYLLEGGPSSGAPPPS-NH2
modifications: bridge 14-17; not fully specified (bridges); also: stapled body (lipidated) structure only in drawing chem0245
For the molecule B7, the “GLP-1 EC50 (nM); cAMP” value in assay [4] stood at 0.007 nM. Further, the “GCG EC50 (nM); cAMP, agonistic activity” value in assay [5] worked out at 0.025 nM. In addition, the “GIP-1 EC50 (nM); cAMP” value in assay [6] turned out to be 0.0005 nM.

B8: Example 52 (peptide)
peptide: Y[Aib]QGTFTSDYSI[αMeL]KDKKAQ[Aib]AFIEYLLEGGPSSGAPPPS-NH2
modifications: linker 14-17 via (2-2-oxoethyl)‑glycine, AEEA, Lys, γGlu, C20 diacid
Consider B8, for which the “GLP-1 EC50 (nM); cAMP” value in assay [4] turned out to be 0.003 nM. Also, the “GCG EC50 (nM); cAMP, agonistic activity” value in assay [5] amounted to 0.025 nM. Also, the “GIP-1 EC50 (nM); cAMP” value in assay [6] is 0.0001 nM.

B9: Example 38 (peptide)
peptide: Y[Aib]QGTFTSDYSI[αMeL]KDKKAQ[Aib]AFIEYLLKGGPSSGAPPPS-NH2
modifications: linker 14-17 via (2-2-oxoethyl)‑glycine, AEEA, γGlu, C20 diacid
B9: the “GLP-1 EC50 (nM); cAMP” value in assay [4] amounted to 0.002 nM. Besides, the “GCG EC50 (nM); cAMP, agonistic activity” value in assay [5] was 0.018 nM. In addition, the “GIP-1 EC50 (nM); cAMP” value in assay [6] turned out to be 0.0002 nM.

B10: Example 28 (peptide)
peptide: Y[Aib]QGTFTSDYSK[αMeL]LDKKAQ[Aib]AFIEFLLEGGPSSGAPPPS-NH2
modifications: linker 12-16 via Ida, Lys, Lys, γGlu, C20 diacid; also: further groups not given here
Turning to B10, in assay [4], the “GLP-1 EC50 (nM); cAMP” value stood at 0.011 nM. In assay [5], the “GCG EC50 (nM); cAMP, agonistic activity” value is 0.11 nM. In addition, in assay [6], the “GIP-1 EC50 (nM); cAMP” value came out at 0.0008 nM.

B11: Example 26 (peptide)
peptide: Y[Aib]QGTFTSDYSI[αMeL]LDKKAQ[Aib]KFIEFLLKGGPSSGAPPPS-NH2
modifications: linker 21-28 via Ida, Lys, Lys, γGlu, C20 diacid; also: further groups not given here
For the molecule B11, the “GLP-1 EC50 (nM); cAMP” value in assay [4] was determined as 0.014 nM. Further, the “GCG EC50 (nM); cAMP, agonistic activity” value in assay [5] is 0.11 nM. For the same molecule, the “GIP-1 EC50 (nM); cAMP” value in assay [6] turned out to be 0.0005 nM.
